Laboratory results reported in patent publication US20120058906A1 (published 2012).

How the values were obtained:
[1] = target: T1, rHuman Notch-1/Fc Chimera, CF (R&D Systems Cat#3647-TK) (human, UniProt P46531 19-526); experiment: MSD ECL multi-spot, Fab 0.74 uM, blank 692;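 further: blank spot per well as comparator with Hit at signal to blank ratio of 4 or more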
T1 construct: Bought Fc chimera; Fc part of the bought chimera not given

[2] = target: T2, rHuman CD44/Fc Chimera, CF (R&D Systems Cat#3660-CD) (human, UniProt P16070 21-220); experiment: MSD ECL multi-spot, Fab 0.74 uM, blank 692;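 further: blank spot per well as comparator with Hit at signal to blank ratio of 4 or more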
T2 construct: Bought Fc chimera; Fc part of the bought chimera not given

[3] = target: T3, rHuman IGF-1 sR (insulin-like growth factor-1 soluble receptor), CF (R&D Systems Cat#391-GR) (human, UniProt P08069 31-932); experiment: MSD ECL multi-spot, Fab 0.74 uM, blank 692;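 further: blank spot per well as comparator with Hit at signal to blank ratio of 4 or more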
T3 construct: Bought soluble receptor; also called IGF-R1

[4] = target: T4, rHuman P-Cadherin/Fc Chimera, CF (R&D Systems Cat#861-PC) (human, UniProt P22223 108-654); experiment: MSD ECL multi-spot, Fab 0.74 uM, blank 692;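 further: blank spot per well as comparator with Hit at signal to blank ratio of 4 or more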
T4 construct: Bought Fc chimera; Fc part of the bought chimera not given

[5] = target: T5, rHuman Erythropoietin R/Fc Chimera, CF (R&D Systems Cat#963-ER) (human, UniProt P19235 25-250); experiment: MSD ECL multi-spot, Fab 0.74 uM, blank 692
T5 construct: Bought Fc chimera; also called EPO R/Fc; EPOR; Fc part of the bought chimera not given
T5 sequence: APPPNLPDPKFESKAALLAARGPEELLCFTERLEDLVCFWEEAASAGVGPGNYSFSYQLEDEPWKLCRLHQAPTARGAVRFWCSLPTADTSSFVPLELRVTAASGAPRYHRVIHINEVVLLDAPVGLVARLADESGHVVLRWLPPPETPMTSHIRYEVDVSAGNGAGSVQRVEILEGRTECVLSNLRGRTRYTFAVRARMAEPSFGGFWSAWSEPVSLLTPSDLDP

[6] = target: T6, Recombinant Human DLL4 (R&D Systems Cat#1506-D4/CF) (human, UniProt Q9NR61 27-524); experiment: MSD ECL multi-spot, Fab 0.74 uM, blank 692
T6 construct: Bought recombinant protein; also called rHuman DLL4; delta-like protein 4

[7] = target: T7, rHuman ErbB2/Fc Chimera, CF (R&D Systems Cat#1129-ER) (human, UniProt P04626 23-652); experiment: MSD ECL multi-spot, Fab 0.74 uM, blank 692
T7 construct: Bought Fc chimera; also called HER2/neu; Fc part of the bought chimera not given

[8] = target: T8, rHuman EGF R/Fc Chimera, CF (R&D Systems Cat#344-ER) (human, UniProt P00533 25-645); experiment: MSD ECL multi-spot, Fab 0.74 uM, blank 692
T8 construct: Bought Fc chimera; Fc part of the bought chimera not given

[9] = target: T9, rHuman HGF R/c-MET/Fc Chimera, CF (R&D Systems Cat#358-MT/CF) (human, UniProt P08581 25-932); experiment: MSD ECL multi-spot, Fab 0.74 uM, blank 692
T9 construct: Bought Fc chimera; also called HGF R/Fc; Fc part of the bought chimera not given

[10] = target: T10, rHuman Erythropoietin R/Fc Chimera, CF (R&D Systems, Cat#963-ER) (human, UniProt P19235 25-250); experiment: ECL (MSD) Fab titration; binding affinity estimated from the 50% binding signal
T10 construct: Bought chimera; also called EPO R/Fc; Epo R; Fc part of the bought chimera not given
T10 sequence: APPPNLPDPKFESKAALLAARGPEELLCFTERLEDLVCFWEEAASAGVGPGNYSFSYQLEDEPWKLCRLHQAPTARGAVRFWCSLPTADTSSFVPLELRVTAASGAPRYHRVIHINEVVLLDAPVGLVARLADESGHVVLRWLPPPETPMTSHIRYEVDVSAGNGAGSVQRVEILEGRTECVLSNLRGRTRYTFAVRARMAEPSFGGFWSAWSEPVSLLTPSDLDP

[11] = target: T11, rHuman Erythropoietin R/Fc Chimera, CF (R&D Systems Cat#963-ER) (human, UniProt P19235 25-250); experiment: ECL (MSD multi-spot), Fab 14.5 nM; blank 117
T11 construct: Bought Fc chimera; also called EPO R/Fc; Epo R; Fc part of the bought chimera not given
T11 sequence: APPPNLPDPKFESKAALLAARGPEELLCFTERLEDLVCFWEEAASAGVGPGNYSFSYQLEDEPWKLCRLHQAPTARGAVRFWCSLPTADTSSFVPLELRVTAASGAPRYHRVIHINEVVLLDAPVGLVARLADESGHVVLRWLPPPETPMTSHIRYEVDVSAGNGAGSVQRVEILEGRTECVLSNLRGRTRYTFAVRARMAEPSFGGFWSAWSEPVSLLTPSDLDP

[12] = target: T12, Recombinant Human DLL4 (R&D Systems Cat#1506-D4/CF) (human, UniProt Q9NR61 27-524); experiment: ECL (MSD multi-spot), Fab 14.5 nM; blank 117
T12 construct: Bought recombinant protein; also called delta-like protein 4

[13] = target: T13, rHuman ErbB2/Fc Chimera, CF (R&D Systems Cat#1129-ER) (human, UniProt P04626 23-652); experiment: ECL (MSD multi-spot), Fab 14.5 nM; blank 117
T13 construct: Bought Fc chimera; also called human epidermal growth factor 2 receptor; HER2/neu; Fc part of the bought chimera not given

[14] = target: T14, rHuman Notch-1/Fc Chimera, CF (R&D Systems Cat#3647-TK) (human, UniProt P46531 19-526); experiment: ECL (MSD multi-spot), Fab 14.5 nM; blank 117
T14 construct: Bought Fc chimera; Fc part of the bought chimera not given

[15] = target: T15, rHuman CD44/Fc Chimera, CF (R&D Systems Cat#3660-CD) (human, UniProt P16070 21-220); experiment: ECL (MSD multi-spot), Fab 14.5 nM; blank 117
T15 construct: Bought Fc chimera; Fc part of the bought chimera not given

[16] = target: T11, rHuman Erythropoietin R/Fc Chimera, CF …; experiment: ECL (MSD multi-spot), Fab 58.1 nM; blank 225
[17] = target: T12, Recombinant Human DLL4 (R&D Systems …); experiment: ECL (MSD multi-spot), Fab 58.1 nM; blank 225
[18] = target: T13, rHuman ErbB2/Fc Chimera, CF (R&D …); experiment: ECL (MSD multi-spot), Fab 58.1 nM; blank 225
[19] = target: T14, rHuman Notch-1/Fc Chimera, CF (R&D …); experiment: ECL (MSD multi-spot), Fab 58.1 nM; blank 225
[20] = target: T15, rHuman CD44/Fc Chimera, CF (R&D Systems …); experiment: ECL (MSD multi-spot), Fab 58.1 nM; blank 225
[21] = target: T11, rHuman Erythropoietin R/Fc Chimera, CF …; experiment: ECL (MSD multi-spot), Fab 930 nM; blank 1206
[22] = target: T12, Recombinant Human DLL4 (R&D Systems …); experiment: ECL (MSD multi-spot), Fab 930 nM; blank 1206
[23] = target: T13, rHuman ErbB2/Fc Chimera, CF (R&D …); experiment: ECL (MSD multi-spot), Fab 930 nM; blank 1206
[24] = target: T14, rHuman Notch-1/Fc Chimera, CF (R&D …); experiment: ECL (MSD multi-spot), Fab 930 nM; blank 1206
[25] = target: T15, rHuman CD44/Fc Chimera, CF (R&D Systems …); experiment: ECL (MSD multi-spot), Fab 930 nM; blank 1206
[26] = target: T11, rHuman Erythropoietin R/Fc Chimera, CF …; experiment: ECL (MSD multi-spot), Fab 232.5 nM; blank 460
[27] = target: T12, Recombinant Human DLL4 (R&D Systems …); experiment: ECL (MSD multi-spot), Fab 232.5 nM; blank 460
[28] = target: T13, rHuman ErbB2/Fc Chimera, CF (R&D …); experiment: ECL (MSD multi-spot), Fab 232.5 nM; blank 460
[29] = target: T14, rHuman Notch-1/Fc Chimera, CF (R&D …); experiment: ECL (MSD multi-spot), Fab 232.5 nM; blank 460
[30] = target: T15, rHuman CD44/Fc Chimera, CF (R&D Systems …); experiment: ECL (MSD multi-spot), Fab 232.5 nM; blank 460
[31] = target: T1, rHuman Notch-1/Fc Chimera, CF (R&D …); experiment: MSD ECL multi-spot, Fab 0.21 uM, blank 529; row label 3 may be swapped with 4
[32] = target: T2, rHuman CD44/Fc Chimera, CF (R&D Systems …); experiment: as above
[33] = target: T3, rHuman IGF-1 sR (insulin-like growth …); experiment: as above
[34] = target: T4, rHuman P-Cadherin/Fc Chimera, CF (R&D …); experiment: as above
[35] = target: T5, rHuman Erythropoietin R/Fc Chimera, CF …; experiment: as above
[36] = target: T6, Recombinant Human DLL4 (R&D Systems …); experiment: as above
[37] = target: T7, rHuman ErbB2/Fc Chimera, CF (R&D …); experiment: as above
[38] = target: T8, rHuman EGF R/Fc Chimera, CF (R&D …); experiment: as above
[39] = target: T9, rHuman HGF R/c-MET/Fc Chimera, CF (R&D …); experiment: as above

B1: Fab VH1-46_IGHD3-10*01_IGHJ4*01 & B3_IGKJ1*01 (Fab, V domains shown)
VH: QVQLVQSGAEVKKPGASVKVSCKASGYTFTSYYMHWVRQAPGQGLEWMGIINPSGGSTSYAQKFQGRVTMTRDTSTSTVYMELSSLRSEDTAVYYCAREYYYGSGSYYNDYFDYWGQGTLVTVSS
VL: not shown
notes: Expressed in E. coli as Fab: heavy chain with CH1 plus Flag and His tags from Plasmid A, kappa light chain constant region from Plasmid C; also called Fab No. 5
ECL signal [1]: 980 | ECL signal [2]: 682 | ECL signal [3]: 593 | ECL signal [4]: 1160 | ECL signal [5]: 4110 | ECL signal [6]: 1000 | ECL signal [7]: 562 | ECL signal [8]: 652 | ECL signal [9]: 633

B2: Fab VH1-46_IGHD3-10*01_IGHJ4*01 & B3_IGKJ1*01 (Fab, V domains shown)
VH: QVQLVQSGAEVKKPGASVKVSCKASGYTFTSYYMHWVRQAPGQGLEWMGIINPSGGSTSYAQKFQGRVTMTRDTSTSTVYMELSSLRSEDTAVYYCAREYYYGSGSYYNDYFDYWGQGTLVTVSS
VL: not shown
notes: Fab from E. coli; VH joined to CH1 with Flag and His tags (Plasmid A), VL to kappa CL (Plasmid C)
Kd [10]: ~100 nM

B3: Fab VH1-46_IGHD6-13*01_IGHJ4*01 & O1_IGKJ1*01 (Fab, V domains shown)
VH: QVQLVQSGAEVKKPGASVKVSCKASGYTFTSYYMHWVRQAPGQGLEWMGIINPSGGSTSYAQKFQGRVTMTRDTSTSTVYMELSSLRSEDTAVYYCAREGYSSSWYDYFDYWGQGTLVTVSS
VL: DIVMTQTPLSLPVTPGEPASISCRSSQSLLDSDDGNTYLDWYLQKPGQSPQLLIYTLSYRASGVPDRFSGSGSGTDFTLKISRVEAEDVGVYYCMQRIEFPSWTFGQGTKVEIK
notes: Tested as a Fab expressed in E. coli: heavy chain with CH1 plus Flag and His tags from Plasmid A, kappa constant region from Plasmid C
ECL signal [11]: 660 ECL signal | ECL signal [12]: 1150 ECL signal | ECL signal [13]: 274 ECL signal | ECL signal [14]: 317 ECL signal | ECL signal [15]: 212 ECL signal | ECL signal [16]: 829 ECL signal | ECL signal [17]: 1880 ECL signal | ECL signal [18]: 322 ECL signal | ECL signal [19]: 388 ECL signal | ECL signal [20]: 375 ECL signal | ECL signal [21]: 3010 ECL signal | ECL signal [22]: 8160 ECL signal | ECL signal [23]: 2220 ECL signal | ECL signal [24]: 2210 ECL signal | ECL signal [25]: 1920 ECL signal | ECL signal [26]: 1470 ECL signal | ECL signal [27]: 3590 ECL signal | ECL signal [28]: 779 ECL signal | ECL signal [29]: 778 ECL signal | ECL signal [30]: 607 ECL signal

B4: Fab VH6-1_IGHD3-3*01_IGHJ4*01 & V4-3_IGLJ4*01 (Fab, V domains shown)
VH: QVQLQQSGPGLVKPSQTLSLTCAISGDSVSSNSAAWNWIRQSPSRGLEWLGRTYYRSKWYNDYAVSVKSRITINPDTSKNQFSLQLNSVTPEDTAVYYCAREYYDFWSGYYTDYFDYWGQGTLVTVSS
VL: QPVLTQPTSLSASPGASARLTCTLRSGINLGSYRIFWYQQKPESPPRYLLSYYSDSSKHQGSGVPSRFSGSKDASSNAGILVISGLQSEDEADYYCMIWHSSASFVFGGGTQLIIL
notes: Expressed in E. coli as Fab: heavy chain with CH1 plus Flag and His tags from Plasmid A, lambda light chain constant region from Plasmid E; also called Fab No. 3
ECL signal [31]: 949 | ECL signal [32]: 837 | ECL signal [33]: 763 | ECL signal [34]: 890 | ECL signal [35]: 1120 | ECL signal [36]: 1070 | ECL signal [37]: 9230 | ECL signal [38]: 815 | ECL signal [39]: 744
